Legend:
unmodified FVIII mutein = unmodified FVIII mutein (UniProt P00451)
[1] = biological target: PEG-FVIII (FVIII mutein directly, non-cleavably conjugated to PEG) (UniProt P00451)
[2] = biological target: PEG-linker-FVIII (FVIII mutein conjugated to PEG through a thrombin-cleavable linker, linker not named in Example 2) (UniProt P00451)

## thrombin
Unmodified FVIII mutein
  SDS-PAGE after thrombin digestion (30 min at 37° C.): After thrombin digestion, the FVIII light and heavy chains disappear and are replaced by cleavage products.
[1]
  SDS-PAGE after thrombin digestion: there was no removal of PEG-conjugated light chain (lane 4)
[2]
  SDS-PAGE after thrombin digestion (30 min at 37° C.): the PEG-conjugated light chain almost completely disappeared in SDS-PAGE analysis, indicating a complete removal of PEG

Source: patent US20120121613
